Results: IntAct's records for PubMed 27832861

B1: Aquaporin-7 (Homo sapiens), O14520 (parent)
chain: MVQASGHRRSTRGSKMVSWSVIAKIQEILQRKMVREFLAEFMSTYVMMVFGLGSVAHMVLNKKYGSYLGVNLGFGFGVTMGVHVAGRISGAHMNAAVTFANCALGRVPWRKFPVYVLGQFLGSFLAAATIYSLFYTAILHFSGGQLMVTGPVATAGIFATYLPDHMTLWRGFLNEAWLTGMLQLCLFAITDQENNPALPGTEALVIGILVVIIGVSLGMNTGYAINPSRDLPPRIFTFIAGWGKQVFSNGENWWWVPVVAPLLGAYLGGIIYLVFIGSTIPREPLKLEDSVAYEDHGITVLPKMGSHEPTISPLTPVSVSPANRSSVHPAPPLHESMALEHF
partner: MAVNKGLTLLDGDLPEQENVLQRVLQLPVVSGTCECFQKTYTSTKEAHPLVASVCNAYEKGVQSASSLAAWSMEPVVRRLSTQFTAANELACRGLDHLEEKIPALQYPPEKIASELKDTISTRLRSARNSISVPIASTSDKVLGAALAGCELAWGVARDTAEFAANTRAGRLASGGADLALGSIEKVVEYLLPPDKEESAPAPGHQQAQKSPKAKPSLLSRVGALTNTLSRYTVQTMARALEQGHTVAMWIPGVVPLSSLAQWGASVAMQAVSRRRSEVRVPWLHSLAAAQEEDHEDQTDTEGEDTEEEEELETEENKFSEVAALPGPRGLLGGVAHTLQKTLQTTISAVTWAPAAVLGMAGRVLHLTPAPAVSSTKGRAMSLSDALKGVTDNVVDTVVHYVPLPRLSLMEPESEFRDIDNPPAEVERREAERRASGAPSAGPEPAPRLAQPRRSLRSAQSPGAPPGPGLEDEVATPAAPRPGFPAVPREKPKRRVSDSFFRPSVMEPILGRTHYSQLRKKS

Variants of: B1
Details: with plin1_human PLIN1, O60240

| Variant | effect of a mutation on the interaction |
| --- | --- |
| MVQASGHRRAARGSKMVSWSVIAKIQEILQRKMVREFLAEFMSTYVMMVFGLGSVAHMVLNKKYGSYLGVNLGFGFGVTMGVHVAGRISGAHMNAAVTFANCALGRVPWRKFPVYVLGQFLGSFLAAATIYSLFYTAILHFSGGQLMVTGPVATAGIFATYLPDHMTLWRGFLNEAWLTGMLQLCLFAITDQENNPALPGTEALVIGILVVIIGVSLGMNTGYAINPSRDLPPRIFTFIAGWGKQVFSNGENWWWVPVVAPLLGAYLGGIIYLVFIGSTIPREPLKLEDSVAYEDHGITVLPKMGSHEPTISPLTPVSVSPANRSSVHPAPPLHESMALEHF [S10A;T11A] | disrupting interaction strength |
